Measured values published in paper PMC8909127 (Frontiers in Microbiology, 2022).
Where “and” joins values, the source holds several entries; their conditions need not be identical. Equal entries are not always repeated. No end group written: not given here.

T1: MPP5 PDZ (human, UniProt Q8N3R9 238-336)
T1 construct: PDZ domain of human MPP5 (PALS1), residues 238-336, numbering of the full-length human protein; […]; Labelled on amines with RED-NHS dye for MST; also called PALS1 PDZ; not shown: GST, N-terminal, cleaved
T1 sequence (looked up): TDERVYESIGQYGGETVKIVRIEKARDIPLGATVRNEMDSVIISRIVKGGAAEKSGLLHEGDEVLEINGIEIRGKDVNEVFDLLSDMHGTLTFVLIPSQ

T2: MLLT4 PDZ (human, UniProt P55196 1002-1095)
T2 construct: PDZ domain of human MLLT4 (Afadin); the residues named in the structure (1014-1022, 1071) fit 1002-1095; also called Afadin PDZ; not shown: His tag, N-terminal, cleaved; MBP, N-terminal, cleaved
T2 sequence (looked up): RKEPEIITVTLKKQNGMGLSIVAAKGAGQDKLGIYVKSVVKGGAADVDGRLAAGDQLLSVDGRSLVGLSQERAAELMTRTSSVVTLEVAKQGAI

T3: LNX2 PDZ2 (human, UniProt Q8N448 334-426)
T3 construct: second PDZ domain of human LNX2, residues 334-426, numbering of the full-length human protein; […]; Labelled on amines with RED-NHS dye for MST; also called LNX2-2; not shown: His tag, N-terminal, cleaved
T3 sequence (looked up): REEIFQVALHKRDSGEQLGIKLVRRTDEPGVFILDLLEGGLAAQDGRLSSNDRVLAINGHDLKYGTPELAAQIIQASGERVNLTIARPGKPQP

B1: C-terminal SARS-CoV-2-E PBM peptide (peptide)
peptide: NLNSSRVPDLLV
notes: also called SARS-CoV-2 WT; SARS-CoV-2 peptide E
B2: ZO-1 PDZ2 (domain or fragment, human, UniProt Q07157 184-264, looked up)
chain: PTKVTLVKSRKNEEYGLRLASHIFVKEISQDSLAARDGNIQEGDVVLKINGTVTENMSLTDAKTLIERSKGKLKMVVQRDE
notes: second PDZ domain of human ZO-1 (TJP1), residues 184-264, numbering of the full-length human protein; […]; Labelled on amines with RED-NHS dye for MST; also called TJP1 PDZ2; ZO-1-2
B3: ZO-1: PDZ2 domain of ZO-1, residues 184-264, at 1 mg/mL (protein)
chain: B2 chain
modifications: left off: His tag, N-terminal, state not stated
notes: PDZ2 domain of ZO-1, residues 184-264, at 1 mg/mL
B4: MLLT4-PBM: MLLT4-PDZ prepared with an excess of protein E PBM peptide (protein)
chain: T2 sequence (looked up)
modifications: left off: His tag, N-terminal, cleaved | MBP, N-terminal, cleaved
notes: MLLT4-PDZ prepared with an excess of protein E PBM peptide

Assays:
GST alone = experiment: GST pull-down, GST alone (negative control); format: binding; settings: GST alone as bait; HEK293 cell lysates; anti-GFP Western blot
Protocol: (§1) To investigate whether the five PDZ domains can interact with the full-length E protein and in a PBM-dependent manner, glutathione S-transferase (GST) pull-down assays were performed with the purified GST-tagged PDZ domains of ZO-1, LNX2, PARD3, MLLT4, and MPP5 and the lysates of HEK293 cells overexpressing constructs of GFP alone, GFP-tagged wild-type full-length E protein (GFP-E-WT), GFP-tagged full-length E protein with the PBM mutated with glycines (GFP-E-GGGG), and GFP-tagged cytoplasmic tail of protein E (last 12 residues; GFP-E last 12 aa) designated 1, 2, 3, and 4 in Figure 2 (Figure 2A). The GFP-tagged construct expression was assessed by examining the fluorescence emitted by the GFP by microscopy and by Western blot on the cell lysates using anti-GFP antibody (Figure 2B). GST alone was used as a negative control. We confirmed by using Ponceau S staining that equal amounts of GST-tagged protein constructs were bound to the GST resin (Figure 2C).
(§2) Glutathione S-transferase alone and its fusion with PDZ ZO1, PDZ LNX2, PDZ MLLT4, PDZ MPP5, and PDZ PARD3 are used as baits and were immobilized on glutathione beads and tested for their ability to pull down GFP alone, GFP-E-WT, GFP-E-GGGG, and GFP-E last 12 aa by Western blot using the anti-GFP antibody. After washing, identical amounts of beads were analyzed for the presence of GFP-tagged proteins. […]

GST-PDZ ZO1 = experiment: GST pull-down, GST-PDZ ZO1; format: binding, human; settings: HEK293 cell lysates; 2 h at 4°C with glutathione resins; anti-GFP Western blot
Protocol: as §1, §2

GST-PDZ MLLT4 = experiment: GST pull-down, GST-PDZ MLLT4; format: binding, human; settings: HEK293 cell lysates; 2 h at 4°C with glutathione resins; anti-GFP Western blot
Protocol: as §1, §2

GST-PDZ LNX2 = experiment: GST pull-down, GST-PDZ LNX2; format: binding, human; settings: HEK293 cell lysates; 2 h at 4°C with glutathione resins; anti-GFP Western blot
Protocol: as §1, §2

GST-PDZ PARD3 = experiment: GST pull-down, GST-PDZ PARD3; format: binding, human; settings: HEK293 cell lysates; 2 h at 4°C with glutathione resins; anti-GFP Western blot
Protocol: as §1, §2

GST-PDZ MPP5 = experiment: GST pull-down, GST-PDZ MPP5; format: binding, human; settings: HEK293 cell lysates; 2 h at 4°C with glutathione resins; anti-GFP Western blot
Protocol: as §1, §2

MPP5 PDZ = target: T1, MPP5 PDZ; experiment: MST; […]; PBS tween 20 0.05%; room temperature; […]; duplicate; settings: both partners purified
MLLT4 PDZ = target: T2, MLLT4 PDZ; experiment: as above; settings: both partners purified
LNX2 PDZ2 = target: T3, LNX2 PDZ2; experiment: as above; settings: both partners purified
PARD3 PDZ3 = target: T4, PARD3 PDZ3 (human, UniProt Q8TEW0 582-685); experiment: as above; settings: both partners purified
T4 construct: third PDZ domain of human PARD3, residues 582-685, numbering of the full-length human protein; […]; Labelled on amines with RED-NHS dye for MST; also called PARDD3-3; not shown: His tag, N-terminal, cleaved

ZO-1 PDZ2 = target: B2; experiment: as above; settings: both partners purified
[1] = target: the molecule itself; experiment: AUC; sedimentation velocity, ZO-1-PDZ2 at 1 mg/mL; Tris 50 mM pH 7.5, NaCl 150 mM, TCEP 0.5 mM; 20°C, 42,000 rpm
[2] = Analytical ultracentrifugation; format: physicochemical; settings: 1 mg/mL, 20°C; for Oligomeric state in solution: AUC; for Oligomeric state in solution / Frictional ratio f/f0 (average) / Molecular weight estimated by analytical ultracentrifugation (AUC) / Peak proportion: pH 7.5; for Frictional ratio f/f0 (average): average over peaks; for Sedimentation coefficient: Tris 50 mM pH 7.5, NaCl 150 mM, TCEP 0.5 mM, 42,000 rpm, MLLT4-PDZ with excess of E PBM peptide
Protocol: ZO-1-PDZ2 and MLLT4-PDZ were prepared at 1 mg/mL. MLLT4-PDZ was prepared with an excess of protein E PBM peptide. Samples were prepared in Tris 50 mM pH 7.5, NaCl 150 mM, and TCEP 0.5 mM. A sample of 400 μl was loaded into 1.2-cm double-sector cells between two sapphire windows. […] Sedimentation profiles were monitored over time by absorbance measurement at 280 nm and by interferometry. The data were analyzed using the continuous size distribution model c(s) of the Sedfit 16.36 software. All distributions were calculated with a floating frictional ratio f/f0 and a maximum entropy regularization procedure with a confidence level of 0.68. The buffer viscosity (η = 0.01031 Poise), the density (ρ = 1.0059), and the partial specific volume of 0.746 for MLLT4 and 0.736 for Z0-1 were estimated at 20°C from the amino acid sequences at 20°C using the software SEDTERP 3.0.3.^3

T4 sequence (Q8TEW0 582-685): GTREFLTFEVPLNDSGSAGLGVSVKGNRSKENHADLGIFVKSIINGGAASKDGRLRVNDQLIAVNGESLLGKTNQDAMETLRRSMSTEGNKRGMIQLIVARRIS

Molecule | Oligomeric state in solution [2] | Frictional ratio f/f0 (average) [2] | Sedimentation coefficient ([2]; peak 1) | Molecular weight estimated by analytical ultracentrifugation (AUC) ([2]; peak 1) | Peak proportion ([2]; peak 1) | Sedimentation coefficient ([2]; peak 2) | Molecular weight estimated by analytical ultracentrifugation (AUC) ([2]; peak 2) | Peak proportion ([2]; peak 2) | Sedimentation coefficient ([2]; peak 3) | Molecular weight estimated by analytical ultracentrifugation (AUC) ([2]; peak 3) | other results
GFP-E last 12 aa (NLNSSRVPDLLV; also: fused to GFP, attachment end not given here) |  |  |  |  |  |  |  |  |  |  | GFP-tagged protein in bound fraction (GST alone): not detected; GFP-tagged protein in bound fraction (GST-PDZ ZO1): detected in all interactions with GST-PDZ domains; GFP-tagged protein in bound fraction (GST-PDZ MLLT4): detected in all interactions with GST-PDZ domains; GFP-tagged protein in bound fraction (GST-PDZ LNX2): detected in all interactions with GST-PDZ domains; GFP-tagged protein in bound fraction (GST-PDZ PARD3): detected in all interactions with GST-PDZ domains; GFP-tagged protein in bound fraction (GST-PDZ MPP5): detected in all interactions with GST-PDZ domains
B1 |  |  |  |  |  |  |  |  |  |  | Kd (MPP5 PDZ): 30 µM; Kd (MLLT4 PDZ): 569 µM; Kd (LNX2 PDZ2): 289 µM; Kd (PARD3 PDZ3): 341 µM; Kd (ZO-1 PDZ2): 15 µM
B2 |  |  |  |  |  |  |  |  |  |  | stoichiometry N [1]: 2 and ~4
B3 | one dimeric form and one higher oligomeric state possibly compatible with a tetramer in solution | 1.4 | 2.1 S | 26 kDa | 49% | 2.8 S | 40 kDa | 49% | 3.7 S | 60 kDa | 
B4 | mainly monomeric in solution | 1.2 | 0.5 S | 2.8 kDa | 25% | 1.4 S | 12 kDa | 65% | 2.3 S | 26 kDa | Peak proportion ([2]; peak 3): 10%
